Measurements as given in patent US20150374794A1 (Novo Nordisk, published 2015).
Numbered stars: 1 amine (or outer) side, 2 acyl side, 3 side chain; on linkers, the order of the positions; unused ones are H or OH. Square brackets hold non-standard residues; d marks the D form. Side chains are listed from the residue outwards. Ends that are not written are not given here. * marks the point of attachment. C18 diacid = O=C(O)CCCCCCCCCCCCCCCCC(=O)*; γGlu = O=C(O)[C@H](CCC(=O)[*:2])N[*:1]; Ac4c = NC1(C(=O)O)CCC1; AEEA = NCCOCCOCC(=O)O; Aib = CC(C)(N)C(=O)O

B1: N^ε28-[(4S)-4-carboxy-4-[[(4S)-4-carboxy-4-[[2-[2-[2-[[2-[2-[2-[[(4S)-4-carboxy-4-[[(4S)-4-carboxy-4-(17-carboxyheptadecanoylamino)butanoyl]amino]butanoyl]amino … (peptide)
peptide: H[Ac4c]QGTFTSDLSKYLDLRRAREFVQWLLK([γGlu-γGlu-AEEA-AEEA-γGlu-γGlu-C18 diacid])T-NH2
modifications: N-terminus assumed
SMILES: CC(C)C[C@H](NC(=O)[C@H](CC(=O)O)NC(=O)[C@H](CC(C)C)NC(=O)[C@H](Cc1ccc(O)cc1)NC(=O)[C@H](CCCCN)NC(=O)[C@H](CO)NC(=O)[C@H](CC(C)C)NC(=O)[C@H](CC(=O)O)NC(=O)[C@H](CO)NC(=O)[C@@H](NC(=O)[C@H](Cc1ccccc1)NC(=O)[C@@H](NC(=O)CNC(=O)[C@H](CCC(N)=O)NC(=O)C1(NC(=O)[C@@H](N)Cc2c[nH]cn2)CCC1)[C@@H](C)O)[C@@H](C)O)C(=O)N[C@@H](CCCNC(=N)N)C(=O)N[C@@H](CCCNC(=N)N)C(=O)N[C@@H](C)C(=O)N[C@@H](CCCNC(=N)N)C(=O)N[C@@H](CCC(=O)O)C(=O)N[C@@H](Cc1ccccc1)C(=O)N[C@H](C(=O)N[C@@H](CCC(N)=O)C(=O)N[C@@H](Cc1c[nH]c2ccccc12)C(=O)N[C@@H](CC(C)C)C(=O)N[C@@H](CC(C)C)C(=O)N[C@@H](CCCCNC(=O)CC[C@H](NC(=O)CC[C@H](NC(=O)COCCOCCNC(=O)COCCOCCNC(=O)CC[C@H](NC(=O)CC[C@H](NC(=O)CCCCCCCCCCCCCCCCC(=O)O)C(=O)O)C(=O)O)C(=O)O)C(=O)O)C(=O)N[C@H](C(N)=O)[C@@H](C)O)C(C)C
B2: N^ε28-[(4S)-4-carboxy-4-[[(4S)-4-carboxy-4-[[(2S)-2-[[(2S)-4-carboxy-2-[[(2S)-2-[[(4S)-4-carboxy-4-[[(4S)-4-carboxy-4-(17-carboxyheptadecanoylamino)butanoyl]ami … (peptide)
peptide: H[Aib]QGTFTSDLSKYLESKRARSFVQWLLK([γGlu-γGlu-Ser-Glu-Ser-γGlu-γGlu-C18 diacid])T-NH2
B3: N^ε29-[(4S)-4-carboxy-4-[[(4S)-4-carboxy-4-[[2-[2-[2-[[2-[2-[2-[[(4S)-4-carboxy-4-(17-carboxyheptadecanoylamino)butanoyl]amino]ethoxy]ethoxy]acetyl]amino]ethoxy … (peptide)
peptide: H[Aib]QGTFTSDLSKYLDARRARDFVQWLLSK([γGlu-γGlu-AEEA-AEEA-γGlu-C18 diacid])-NH2
modifications: N-terminus assumed
SMILES: CC(C)C[C@H](NC(=O)[C@H](Cc1ccc(O)cc1)NC(=O)[C@H](CCCCN)NC(=O)[C@H](CO)NC(=O)[C@H](CC(C)C)NC(=O)[C@H](CC(=O)O)NC(=O)[C@H](CO)NC(=O)[C@@H](NC(=O)[C@H](Cc1ccccc1)NC(=O)[C@@H](NC(=O)CNC(=O)[C@H](CCC(N)=O)NC(=O)C(C)(C)NC(=O)[C@@H](N)Cc1c[nH]cn1)[C@@H](C)O)[C@@H](C)O)C(=O)N[C@@H](CC(=O)O)C(=O)N[C@@H](C)C(=O)N[C@@H](CCCNC(=N)N)C(=O)N[C@@H](CCCNC(=N)N)C(=O)N[C@@H](C)C(=O)N[C@@H](CCCNC(=N)N)C(=O)N[C@@H](CC(=O)O)C(=O)N[C@@H](Cc1ccccc1)C(=O)N[C@H](C(=O)N[C@@H](CCC(N)=O)C(=O)N[C@@H](Cc1c[nH]c2ccccc12)C(=O)N[C@@H](CC(C)C)C(=O)N[C@@H](CC(C)C)C(=O)N[C@@H](CO)C(=O)N[C@@H](CCCCNC(=O)CC[C@H](NC(=O)CC[C@H](NC(=O)COCCOCCNC(=O)COCCOCCNC(=O)CC[C@H](NC(=O)CCCCCCCCCCCCCCCCC(=O)O)C(=O)O)C(=O)O)C(=O)O)C(N)=O)C(C)C
B4: N^ε29-[(4S)-4-carboxy-4-[[2-[2-[2-[[2-[2-[2-[[(4S)-4-carboxy-4-[[(4S)-4-carboxy-4-(17-carboxyheptadecanoylamino)butanoyl]amino]butanoyl]amino]ethoxy]ethoxy]acet … (peptide)
peptide: H[Aib]QGTFTSDLSKYLESRRAREFVQWLLNK([γGlu-AEEA-AEEA-γGlu-γGlu-C18 diacid])-NH2
modifications: N-terminus assumed
SMILES: CC(C)C[C@H](NC(=O)[C@H](CC(C)C)NC(=O)[C@H](Cc1c[nH]c2ccccc12)NC(=O)[C@H](CCC(N)=O)NC(=O)[C@@H](NC(=O)[C@H](Cc1ccccc1)NC(=O)[C@H](CCC(=O)O)NC(=O)[C@H](CCCNC(=N)N)NC(=O)[C@H](C)NC(=O)[C@H](CCCNC(=N)N)NC(=O)[C@H](CCCNC(=N)N)NC(=O)[C@H](CO)NC(=O)[C@H](CCC(=O)O)NC(=O)[C@H](CC(C)C)NC(=O)[C@H](Cc1ccc(O)cc1)NC(=O)[C@H](CCCCN)NC(=O)[C@H](CO)NC(=O)[C@H](CC(C)C)NC(=O)[C@H](CC(=O)O)NC(=O)[C@H](CO)NC(=O)[C@@H](NC(=O)[C@H](Cc1ccccc1)NC(=O)[C@@H](NC(=O)CNC(=O)[C@H](CCC(N)=O)NC(=O)C(C)(C)NC(=O)[C@@H](N)Cc1c[nH]cn1)[C@@H](C)O)[C@@H](C)O)C(C)C)C(=O)N[C@@H](CC(N)=O)C(=O)N[C@@H](CCCCNC(=O)CC[C@H](NC(=O)COCCOCCNC(=O)COCCOCCNC(=O)CC[C@H](NC(=O)CC[C@H](NC(=O)CCCCCCCCCCCCCCCCC(=O)O)C(=O)O)C(=O)O)C(=O)O)C(N)=O
B5: N^ε29-[(4S)-4-carboxy-4-[[(4S)-4-carboxy-4-[[2-[2-[2-[[2-[2-[2-[[(4S)-4-carboxy-4-(17-carboxyheptadecanoylamino)butanoyl]amino]ethoxy]ethoxy]acetyl]amino]ethoxy … (peptide)
peptide: H[Aib]QGTFTSDLSKYLDSKAAQEFVQWLLNK([γGlu-γGlu-AEEA-AEEA-γGlu-C18 diacid])-NH2
modifications: N-terminus assumed
SMILES: CC(C)C[C@H](NC(=O)[C@H](CC(C)C)NC(=O)[C@H](Cc1c[nH]c2ccccc12)NC(=O)[C@H](CCC(N)=O)NC(=O)[C@@H](NC(=O)[C@H](Cc1ccccc1)NC(=O)[C@H](CCC(=O)O)NC(=O)[C@H](CCC(N)=O)NC(=O)[C@H](C)NC(=O)[C@H](C)NC(=O)[C@H](CCCCN)NC(=O)[C@H](CO)NC(=O)[C@H](CC(=O)O)NC(=O)[C@H](CC(C)C)NC(=O)[C@H](Cc1ccc(O)cc1)NC(=O)[C@H](CCCCN)NC(=O)[C@H](CO)NC(=O)[C@H](CC(C)C)NC(=O)[C@H](CC(=O)O)NC(=O)[C@H](CO)NC(=O)[C@@H](NC(=O)[C@H](Cc1ccccc1)NC(=O)[C@@H](NC(=O)CNC(=O)[C@H](CCC(N)=O)NC(=O)C(C)(C)NC(=O)[C@@H](N)Cc1c[nH]cn1)[C@@H](C)O)[C@@H](C)O)C(C)C)C(=O)N[C@@H](CC(N)=O)C(=O)N[C@@H](CCCCNC(=O)CC[C@H](NC(=O)CC[C@H](NC(=O)COCCOCCNC(=O)COCCOCCNC(=O)CC[C@H](NC(=O)CCCCCCCCCCCCCCCCC(=O)O)C(=O)O)C(=O)O)C(=O)O)C(N)=O
B6: N^ε29-[(4S)-4-carboxy-4-[[2-[2-[2-[[2-[2-[2-[[(4S)-4-carboxy-4-[[(4S)-4-carboxy-4-(17-carboxyheptadecanoylamino)butanoyl]amino]butanoyl]amino]ethoxy]ethoxy]acet … (peptide)
peptide: H[Aib]QGTFTSDLSKYLDKRRAREFVAWLLNT-NH2
modifications: not fully specified (residue 16)
B7: N^ε29-[(4S)-4-carboxy-4-[[(4S)-4-carboxy-4-[[2-[2-[2-[[2-[2-[2-[[(4S)-4-carboxy-4-(17-carboxyheptadecanoylamino)butanoyl]amino]ethoxy]ethoxy]acetyl]amino]ethoxy … (peptide)
peptide: H[Aib]QGTFTSDLSKYLDARRARDFVQWLLNK([γGlu-γGlu-AEEA-AEEA-γGlu-C18 diacid])-NH2
modifications: N-terminus assumed
SMILES: CC(C)C[C@H](NC(=O)[C@H](Cc1ccc(O)cc1)NC(=O)[C@H](CCCCN)NC(=O)[C@H](CO)NC(=O)[C@H](CC(C)C)NC(=O)[C@H](CC(=O)O)NC(=O)[C@H](CO)NC(=O)[C@@H](NC(=O)[C@H](Cc1ccccc1)NC(=O)[C@@H](NC(=O)CNC(=O)[C@H](CCC(N)=O)NC(=O)C(C)(C)NC(=O)[C@@H](N)Cc1c[nH]cn1)[C@@H](C)O)[C@@H](C)O)C(=O)N[C@@H](CC(=O)O)C(=O)N[C@@H](C)C(=O)N[C@@H](CCCNC(=N)N)C(=O)N[C@@H](CCCNC(=N)N)C(=O)N[C@@H](C)C(=O)N[C@@H](CCCNC(=N)N)C(=O)N[C@@H](CC(=O)O)C(=O)N[C@@H](Cc1ccccc1)C(=O)N[C@H](C(=O)N[C@@H](CCC(N)=O)C(=O)N[C@@H](Cc1c[nH]c2ccccc12)C(=O)N[C@@H](CC(C)C)C(=O)N[C@@H](CC(C)C)C(=O)N[C@@H](CC(N)=O)C(=O)N[C@@H](CCCCNC(=O)CC[C@H](NC(=O)CC[C@H](NC(=O)COCCOCCNC(=O)COCCOCCNC(=O)CC[C@H](NC(=O)CCCCCCCCCCCCCCCCC(=O)O)C(=O)O)C(=O)O)C(=O)O)C(N)=O)C(C)C
B8: N^ε28-[(4S)-4-carboxy-4-[[(4S)-4-carboxy-4-[[(4S)-4-carboxy-4-(17-carboxyheptadecanoylamino)butanoyl]amino]butanoyl]amino]butanoyl]-[Aib2,Leu10,Arg12,Ala16,Arg2 … (peptide)
peptide: H[Aib]QGTFTSDLSRYLDARRARDFVQWLLK([γGlu-γGlu-γGlu-C18 diacid])T-NH2
modifications: N-terminus assumed
SMILES: CC(C)C[C@H](NC(=O)[C@H](Cc1ccc(O)cc1)NC(=O)[C@H](CCCNC(=N)N)NC(=O)[C@H](CO)NC(=O)[C@H](CC(C)C)NC(=O)[C@H](CC(=O)O)NC(=O)[C@H](CO)NC(=O)[C@@H](NC(=O)[C@H](Cc1ccccc1)NC(=O)[C@@H](NC(=O)CNC(=O)[C@H](CCC(N)=O)NC(=O)C(C)(C)NC(=O)[C@@H](N)Cc1c[nH]cn1)[C@@H](C)O)[C@@H](C)O)C(=O)N[C@@H](CC(=O)O)C(=O)N[C@@H](C)C(=O)N[C@@H](CCCNC(=N)N)C(=O)N[C@@H](CCCNC(=N)N)C(=O)N[C@@H](C)C(=O)N[C@@H](CCCNC(=N)N)C(=O)N[C@@H](CC(=O)O)C(=O)N[C@@H](Cc1ccccc1)C(=O)N[C@H](C(=O)N[C@@H](CCC(N)=O)C(=O)N[C@@H](Cc1c[nH]c2ccccc12)C(=O)N[C@@H](CC(C)C)C(=O)N[C@@H](CC(C)C)C(=O)N[C@@H](CCCCNC(=O)CC[C@H](NC(=O)CC[C@H](NC(=O)CC[C@H](NC(=O)CCCCCCCCCCCCCCCCC(=O)O)C(=O)O)C(=O)O)C(=O)O)C(=O)N[C@H](C(N)=O)[C@@H](C)O)C(C)C

Columns and labels:
[1] = target: T1, human glucagon receptor (human, UniProt P47871 26-477); assay: displacement of 125I-glucagon, membranes with human glucagon receptor, SPA
T1 construct: whole, on cells; the potency assay used whole cells (clone pLJ6'-4-25); also called GlucR; hGCGR
Method: (§1) The receptor binding of each compound to the human glucagon receptor was measured in a displacement binding assay. […] Each derivative was added in a series of concentrations to isolated membranes containing the human glucagon receptor and displacement of the labelled ligand is monitored. The receptor binding was reported as the concentration at which half of the labelled ligand is displaced from the receptor, the IC₅₀ value.

[2] = target: T2, human GLP-1 receptor (human, UniProt P43220 24-463); assay: cell-based or functional assay
[3] = target: T1, human glucagon receptor; assay: cell-based or functional assay
[4] = target: T2, human GLP-1 receptor; assay: displacement of 125I-GLP-1(7-36)NH2, membranes with human GLP-1R, SPA
Method: as §1, with “human GLP-1” for “human glucagon”, “ligand was” for “ligand is”

T1 sequence (P47871 26-477): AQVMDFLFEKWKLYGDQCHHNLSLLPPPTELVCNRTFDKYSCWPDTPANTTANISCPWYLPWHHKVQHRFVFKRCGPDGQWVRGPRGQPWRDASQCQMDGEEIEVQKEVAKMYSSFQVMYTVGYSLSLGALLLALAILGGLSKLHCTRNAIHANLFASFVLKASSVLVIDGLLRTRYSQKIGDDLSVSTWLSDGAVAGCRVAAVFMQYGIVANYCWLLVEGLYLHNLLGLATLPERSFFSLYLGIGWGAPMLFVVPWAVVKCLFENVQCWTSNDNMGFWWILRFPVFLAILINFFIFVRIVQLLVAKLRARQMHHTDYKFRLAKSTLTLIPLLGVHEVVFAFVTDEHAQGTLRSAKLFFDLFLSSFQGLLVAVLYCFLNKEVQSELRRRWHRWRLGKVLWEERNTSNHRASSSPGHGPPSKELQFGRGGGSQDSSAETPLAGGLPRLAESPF

Binder | IC50 [1] [nM] | EC50 GLP-1R, CRE luciferase reporter gene assay in BHK cells [2] [pM] | EC50 GlucR, CRE luciferase reporter gene assay in BHK cells [3] [pM] | IC50 [4] [nM]
B1 | 1.7 | 17 | 4 | 0.4
B2 | 9.5 | 7 | 68 | 0.2
B3 | 10.4 | 5 | 47 | 0.6
B4 | 51 | 2.7 | 240 | 0.3
B5 | 6.7 | 29.6 | 1130 | 1.1
B6 | 8.5 | 4.7 | 39.9 | 0.9
B7 | 17 | 6 | 44 | 0.5
B8 | 3.9 | 8 | 10 | 0.2
